This series in a line: soluble fraction after stress (log2 fold change); higher = more stays soluble; pooled small domains, quantitative proteomics. As to conditions: stress: 50 degC. The method in brief: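 Pooled custom libraries of small protein domains were each held under stress at 50°C. The read-out, high-throughput quantitative proteomics, tracked how much of each protein stayed soluble. This is reported as a base-two log fold change used to indicate aggregation propensity. Higher values mean more protein remains in solution.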

The text below walks through data of the domain aggregation screens of Martell et al. (2025).

As to “HMQRDDMQIDRLIQIVFLLLSRNNLTAKQLAEELGVSTRTIYRDINILSVAGIPITSQKGYGGGLSLLQG”, the “soluble fraction (log2)” value is -0.62.
The result for “HMNPFLELTEREMDVLRLIAIGRNNQEIASELVISEKTVKTHITNIFSKLHFKDRTQAAAYAWQSGIVR” reads -0.74; that for “HMEVPMELPRQLRANRERLGLSQEDVAHAIYVSRQTMSSWERGKTYPDVQSLMLLSHLFGISIDELVKGDV”, -1.55; that for “HMQESVTVSAQALRRLLEKGDGDAALLYLALLRHHGTIQPRALAGELRWERPRIEAAEEALRQMGLIA”, -0.0318.
The same measure for “HMQNKYIIKQGNSGELVEVLQELLNLKQDGVFGPQTKKAVIAFQQKHKLVADGIVGPMSWRKLNFNPEELF”: -2.13; for “HMVTLQEVKQYLRIDFEEEDPLLLSLLATAKQQVMNVGRMDEAQLSEHEDTARTAILYAVSYLYENRN”: -1.85.
The result for “HMGKAVTLEEARAIIQAKVPGASPDMIQIWEEHGDGRGRYEGELSYNNMKYEFEMDPKTGIIFDWNA” reads -0.224; that for “HMDKSPMIGTAEYEGVLYWRQTKDNGATWEWITDKNGDKMPVSGPAPAVGIDKDGYWTVNGESTGVLAKD”, 0.168.
As for “HMSQTDQALRHLIREAWATLPQRQQQAVELAYYEGLPDTEIAARLNQPVEEVKTSIVLGMAHLREALHSY”, the “soluble fraction (log2)” value is -0.583.
The result for “HMDEDLQEALRKLNPIQANERKLLLKMLEQHRWNVSSVAKAFDVSRNTLYRRLHKLHIPLSNPSE” reads -0.417; that for “HMNKTQLQIEDEVLKPLIAEIFSKSKGRFGARKIRSKLMGLGYTASERRILRLMKELGLSSAG”, -0.378.
The result for “HMDGKPSLIISNGQINYKEMVKLRYSLEDLLFQLRQNSIKSIEEVEYAFLESNGKLSIFPYNFL” reads -1.51; that for “HMVMNKQEFLKILRDTLQSQLSSRETENHVEYYRTYIEEQMREGKTEIEILDVLGDPRLIARTILET”, -0.0725; that for “HMTPGPFLVYITGAVERPNVLVTLDYGSRVIDALNAAGGSRIDANLDLVNLAQRLVDGDQIHVPTLR”, -1.28.
The same measure for “HMDSTTHALALVRTLPRDQAEAVLLRVVADLDYADVAEIMGRSPGAVRVLVHRGLRRLEQELATRRT”: -0.465.
As for “HMNAKNPRALAIQYVFKMQMGNFLHAKTDNQQQEQERIMTLFNEENKNTILPRWGKELLSYINRN”, the “soluble fraction (log2)” value is -0.695.
The result for “HMSIESPEEFNAKFPPGSEIYATNIQKNAIVQSPANAKGDVEILANSMRLTINFRFISKRDT” reads 0.0469; that for “HMAAGADEATTVPNVSGDTLNQAIKSLKAEGLGYMLSGAGARVRDQMPEPGAEMTKGSVVMLYMDGDAEVD”, -0.0304; that for “HMWTIDPLDWKTENADQIVEKVMSEAKENAIILLHDRYEASVEAALRIVDLLKEQGYTFVTADKLV”, -0.257.
In the case of “HMREGIQLGDPVRVIRDPLFGKIGAVSGLPSELRAIPTESEVRVLEVRFPDGTTTVVPRANIEVIEG”, the “soluble fraction (log2)” value stood at 0.364.
The same measure for “HMGYNDQEVKSNLITLLSTSKTGLSGVEISAQLGINRVTMTKFLNVFAAEGIIKQKNIGNLNLWLVEEGTE”: -1.58; for “HMGKSETALELIKRGHRLIADDAVEITRIGSTLSGTAPELIRNYLEVRGVGVIDVEKLFGVGAVQDSTQI”: 0.0401; for “HMSGSKEQQIVILNNILERQLQAFGLQGNREFPMVTLKNIYNSLSKIIENAGLKNVENYFVNPEQGKQM”: -0.256.
The same measure for “HMLLTEETLPQLKQIVDEFPYFQIARMLYLKNLAVLNDIRFSVELKKMSIYVPDRRKLFTLIEGE”: 0.00426; for “HMTIGEALLNLRKQLGLNQTEMAANVVSTSFYSKVERNIHDIGTKDLLQILNKHQINATYFFENLN”: -1.91.
For the sequence “HMSQVSTKYINVSSAYVRSKPSKDGEIVTSLIKNTDVTVTGENGDWYKIKFNNYEGYIFKELLSDSKLEE”, the “soluble fraction (log2)” value was found to be 0.15.
The result for “HMETKQYIVEAQDEGTRLDVYLTKELGQSRSYVQSLVKEGHVQVNGKTGKSNLKLSSSSEILVTIPEVQ” reads -0.0648; that for “HMLPIKLDLEIGENVRVVSGPLENFVGSVVSFDTDQQKVKLVVEMFGRKTPVELDFIEVQKLR”, -0.435; that for “HMLKIAENIYQRRKEKNITQEELADFMMVTKASVSKWETGQSYPDILLLPKLATFFNVTVDELIGYEPQ”, -1.2.
The result for “HMATQTGTVKWFNEGKGFGFIAPDDGSKDLFAHFSEIKTTGFKTLAEAQRVEFEVTEGRKGLQASNIK” reads 0.0521; that for “HMNQRQLQIKQMLDVAQEVFLKQLKTVFPDVSEMTIRRDLILLEDMGYAVRTHGGAVSINRF”, -2.14.
The same measure for “HMIVIMKAKAEEEDVNRVIDTIQSLGLRTQLNLGAERMVVAVIGDISKIGEDNFFRIRAMKGVENTVFVSK”: -0.396; for “HMSLNNAHNTIFPRIIELMEMKQLENVLLIGGGIIPRKDIESLESSGVTKLYGPGTPVKETIEFITNWVK”: -0.268; for “HMDPALSPAEQKIWDLLAAGETHIDDLVRASGLPVATVNSALVMMEMKEVISQVAAKTYRRNRRN”: -0.0324.
